The source of these data is publication PMC3766443 (Nature structural & molecular biology, 2013).

The assay deals with Arp2 subunit of Bos taurus Arp2/3 complex (Bos taurus, UniProt A7MB62 1-394). The experiment in a line: crystal structure.

B1: Mus musculus GMFγ (glial maturation factor gamma), GST tag removed (natural protein)
chain: MSDSLVVCEVDPELKETLRKFRFRKETNNAAIIMKVDKDRQMVVLEDELQNISPEELKLELPERQPRFVVYSYKYVHDDGRVSYPLCFIFSSPVGCKPEQQMMYAGSKNRLVQTAELTKVFEIRTTDDLTETWLKEKLAFFR
Regarding B1, the binding result is “binds”.
